# The supplement of paper PMC10065799, “High-throughput profiling of sequence recognition by tyrosine kinases and SH2 domains using bacterial peptide display” (eLife, 2023)
# What was measured:
# [1] = biological target: FGFR1 (UniProt P11362); assay: phosphorylation enrichment, bacterial display (enrichment ratio); higher = better substrate or ligand; peptides without Tyr show the background
# [2] = system: Fer (mouse); assay: as above
# [3] = biological target: Fyn (UniProt P06241); assay: as above
# [4] = system: AncSZ; assay: as above
# [5] = system: c-Src; assay: as above
# [6] = biological target: EPHB1 (UniProt P54762); assay: as above
# [7] = biological target: MERTK (UniProt Q12866); assay: as above
# [8] = biological target: Jak2 (UniProt O60674); assay: as above
# [9] = biological target: Hck (UniProt P08631); assay: as above
# [10] = system: c-Abl (mouse); assay: as above
# [11] = biological target: Fes (UniProt P07332); assay: as above
# [12] = biological target: EPHB2 (UniProt P29323); assay: as above
# [13] = biological target: FGFR3 (UniProt P22607); assay: as above
# [14] = biological target: Grb2 SH2 (UniProt P62993); assay: SH2 binding enrichment of the phosphorylated peptide, bacterial display (enrichment ratio); higher = better substrate or ligand; peptides without Tyr show the background
# [15] = biological target: c-Src SH2; assay: as above
# [16] = biological target: SHP2-C SH2; assay: as above
# 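Throughout, for SH2 binding enrichment of the phosphorylated peptide, bacterial display: peptide library displayed on the E. coli surface as eCPX fusions, selected cells deep-sequenced, score is each peptide's frequency after selection divided by its frequency in the input.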
# 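Throughout, for phosphorylation enrichment, bacterial display: 11-residue human phosphosite peptides and single-mutation variants displayed on the E. coli surface, counted by deep sequencing, each peptide's frequency after selection divided by its frequency in the unselected input library; frequency after pTyr selection over input frequency; kinase dosed for 20-30% of maximal phosphorylation in three min.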
# Sequence of FGFR1 (P11362 whole entry, looked up): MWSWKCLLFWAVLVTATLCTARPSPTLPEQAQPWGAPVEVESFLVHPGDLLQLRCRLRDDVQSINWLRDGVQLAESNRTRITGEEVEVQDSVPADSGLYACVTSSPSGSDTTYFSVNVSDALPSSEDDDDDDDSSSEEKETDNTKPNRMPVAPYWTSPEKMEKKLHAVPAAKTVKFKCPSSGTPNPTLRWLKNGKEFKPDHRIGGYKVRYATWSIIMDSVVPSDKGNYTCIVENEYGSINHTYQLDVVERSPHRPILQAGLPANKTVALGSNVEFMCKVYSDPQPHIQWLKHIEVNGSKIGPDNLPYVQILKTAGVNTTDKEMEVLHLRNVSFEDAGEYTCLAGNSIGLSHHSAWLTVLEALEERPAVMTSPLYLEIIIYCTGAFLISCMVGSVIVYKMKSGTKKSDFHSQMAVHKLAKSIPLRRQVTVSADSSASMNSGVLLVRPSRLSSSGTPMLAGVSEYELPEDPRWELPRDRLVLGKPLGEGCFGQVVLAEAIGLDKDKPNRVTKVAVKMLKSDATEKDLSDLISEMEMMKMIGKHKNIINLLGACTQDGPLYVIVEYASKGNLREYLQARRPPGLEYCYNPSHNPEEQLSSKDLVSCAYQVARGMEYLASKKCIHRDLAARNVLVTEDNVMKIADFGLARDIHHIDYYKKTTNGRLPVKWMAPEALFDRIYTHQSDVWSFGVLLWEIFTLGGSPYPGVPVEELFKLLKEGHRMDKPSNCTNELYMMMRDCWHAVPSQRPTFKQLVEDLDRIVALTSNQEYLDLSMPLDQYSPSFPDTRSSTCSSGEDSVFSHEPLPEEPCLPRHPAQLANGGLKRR
# Sequence of EPHB1 (P54762 whole entry, looked up): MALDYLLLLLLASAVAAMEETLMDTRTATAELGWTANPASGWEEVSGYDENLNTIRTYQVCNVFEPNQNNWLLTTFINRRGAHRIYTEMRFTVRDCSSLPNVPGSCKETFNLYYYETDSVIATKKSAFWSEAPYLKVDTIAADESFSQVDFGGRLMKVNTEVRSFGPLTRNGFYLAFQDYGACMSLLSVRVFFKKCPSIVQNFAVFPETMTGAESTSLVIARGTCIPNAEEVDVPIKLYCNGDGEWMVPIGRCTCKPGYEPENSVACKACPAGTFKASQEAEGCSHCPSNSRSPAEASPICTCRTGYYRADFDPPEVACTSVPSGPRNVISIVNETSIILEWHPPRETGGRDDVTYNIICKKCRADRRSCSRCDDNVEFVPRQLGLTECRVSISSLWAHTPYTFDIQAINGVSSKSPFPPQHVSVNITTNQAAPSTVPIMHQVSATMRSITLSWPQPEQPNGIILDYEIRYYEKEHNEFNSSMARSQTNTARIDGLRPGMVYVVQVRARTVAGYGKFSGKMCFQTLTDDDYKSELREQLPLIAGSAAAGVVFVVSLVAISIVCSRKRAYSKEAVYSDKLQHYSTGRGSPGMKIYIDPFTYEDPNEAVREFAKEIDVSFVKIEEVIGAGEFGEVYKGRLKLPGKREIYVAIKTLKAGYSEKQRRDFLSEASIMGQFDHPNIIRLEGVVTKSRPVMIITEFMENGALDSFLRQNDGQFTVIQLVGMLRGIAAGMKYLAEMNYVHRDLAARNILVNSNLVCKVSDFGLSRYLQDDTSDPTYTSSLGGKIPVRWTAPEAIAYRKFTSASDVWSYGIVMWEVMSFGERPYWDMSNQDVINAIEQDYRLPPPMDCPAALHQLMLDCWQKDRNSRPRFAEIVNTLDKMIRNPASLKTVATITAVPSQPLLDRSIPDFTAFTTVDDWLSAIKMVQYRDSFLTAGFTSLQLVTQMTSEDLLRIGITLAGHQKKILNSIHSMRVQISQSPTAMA
# Sequence of MERTK (Q12866 whole entry, looked up): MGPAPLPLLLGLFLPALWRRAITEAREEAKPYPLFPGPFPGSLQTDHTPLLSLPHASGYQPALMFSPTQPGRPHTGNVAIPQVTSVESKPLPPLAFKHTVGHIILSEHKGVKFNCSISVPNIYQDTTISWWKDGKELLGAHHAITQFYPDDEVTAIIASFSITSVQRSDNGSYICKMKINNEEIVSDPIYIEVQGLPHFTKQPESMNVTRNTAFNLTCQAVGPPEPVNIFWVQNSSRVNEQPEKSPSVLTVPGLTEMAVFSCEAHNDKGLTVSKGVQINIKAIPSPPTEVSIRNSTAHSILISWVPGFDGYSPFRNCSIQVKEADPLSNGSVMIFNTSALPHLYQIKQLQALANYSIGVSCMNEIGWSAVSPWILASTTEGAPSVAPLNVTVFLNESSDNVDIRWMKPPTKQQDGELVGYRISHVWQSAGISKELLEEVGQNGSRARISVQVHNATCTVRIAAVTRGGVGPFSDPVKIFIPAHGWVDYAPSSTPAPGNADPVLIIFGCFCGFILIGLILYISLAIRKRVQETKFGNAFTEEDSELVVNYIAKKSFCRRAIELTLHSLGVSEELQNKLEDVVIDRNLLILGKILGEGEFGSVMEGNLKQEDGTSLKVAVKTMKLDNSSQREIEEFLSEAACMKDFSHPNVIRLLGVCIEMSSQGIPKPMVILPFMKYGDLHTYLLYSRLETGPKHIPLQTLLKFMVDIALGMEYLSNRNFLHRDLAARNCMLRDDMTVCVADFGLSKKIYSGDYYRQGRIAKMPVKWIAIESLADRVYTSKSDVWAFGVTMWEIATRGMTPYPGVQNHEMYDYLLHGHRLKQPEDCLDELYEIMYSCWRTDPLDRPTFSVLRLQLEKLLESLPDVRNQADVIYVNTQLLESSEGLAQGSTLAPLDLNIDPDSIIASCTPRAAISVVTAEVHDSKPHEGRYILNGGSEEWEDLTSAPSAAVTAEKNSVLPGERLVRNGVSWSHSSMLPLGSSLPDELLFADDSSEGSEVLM
# Sequence of Fes (P07332 whole entry, looked up): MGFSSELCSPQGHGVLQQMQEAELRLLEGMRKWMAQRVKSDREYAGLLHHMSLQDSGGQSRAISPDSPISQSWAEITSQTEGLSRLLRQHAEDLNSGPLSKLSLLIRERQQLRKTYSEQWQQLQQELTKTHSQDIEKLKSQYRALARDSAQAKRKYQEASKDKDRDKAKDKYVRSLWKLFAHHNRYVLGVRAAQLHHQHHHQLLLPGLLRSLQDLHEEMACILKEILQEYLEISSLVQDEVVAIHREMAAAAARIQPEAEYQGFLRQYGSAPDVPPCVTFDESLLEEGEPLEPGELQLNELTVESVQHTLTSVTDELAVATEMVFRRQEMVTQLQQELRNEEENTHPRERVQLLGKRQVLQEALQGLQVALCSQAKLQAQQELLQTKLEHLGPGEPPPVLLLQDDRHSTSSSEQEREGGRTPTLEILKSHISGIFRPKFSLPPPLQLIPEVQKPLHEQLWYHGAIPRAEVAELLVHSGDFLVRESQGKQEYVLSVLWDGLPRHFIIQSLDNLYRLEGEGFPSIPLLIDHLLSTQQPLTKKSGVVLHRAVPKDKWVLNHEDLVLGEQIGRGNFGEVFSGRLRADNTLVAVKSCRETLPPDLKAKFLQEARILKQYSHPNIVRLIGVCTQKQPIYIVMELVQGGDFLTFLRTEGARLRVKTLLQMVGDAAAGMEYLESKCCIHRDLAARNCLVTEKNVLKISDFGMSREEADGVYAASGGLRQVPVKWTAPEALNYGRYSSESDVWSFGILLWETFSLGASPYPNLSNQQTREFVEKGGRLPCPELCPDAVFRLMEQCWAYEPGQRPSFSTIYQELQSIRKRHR
# Sequence of Fyn (P06241 whole entry, looked up): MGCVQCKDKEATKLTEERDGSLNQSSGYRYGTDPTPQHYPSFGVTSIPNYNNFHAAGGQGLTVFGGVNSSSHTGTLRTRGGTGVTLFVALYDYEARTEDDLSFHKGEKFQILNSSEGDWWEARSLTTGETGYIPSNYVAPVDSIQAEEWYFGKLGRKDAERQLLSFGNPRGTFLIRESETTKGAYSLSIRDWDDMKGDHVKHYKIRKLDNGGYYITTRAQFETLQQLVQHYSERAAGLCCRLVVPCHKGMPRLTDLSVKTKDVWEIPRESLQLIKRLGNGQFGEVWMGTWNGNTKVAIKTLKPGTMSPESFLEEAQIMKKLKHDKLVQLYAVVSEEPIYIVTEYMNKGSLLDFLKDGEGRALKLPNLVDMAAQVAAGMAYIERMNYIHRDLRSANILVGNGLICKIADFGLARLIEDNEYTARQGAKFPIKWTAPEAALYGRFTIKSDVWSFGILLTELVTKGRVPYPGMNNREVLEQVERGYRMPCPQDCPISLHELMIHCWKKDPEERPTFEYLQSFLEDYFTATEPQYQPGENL
# Sequence of FGFR3 (P22607 whole entry, looked up): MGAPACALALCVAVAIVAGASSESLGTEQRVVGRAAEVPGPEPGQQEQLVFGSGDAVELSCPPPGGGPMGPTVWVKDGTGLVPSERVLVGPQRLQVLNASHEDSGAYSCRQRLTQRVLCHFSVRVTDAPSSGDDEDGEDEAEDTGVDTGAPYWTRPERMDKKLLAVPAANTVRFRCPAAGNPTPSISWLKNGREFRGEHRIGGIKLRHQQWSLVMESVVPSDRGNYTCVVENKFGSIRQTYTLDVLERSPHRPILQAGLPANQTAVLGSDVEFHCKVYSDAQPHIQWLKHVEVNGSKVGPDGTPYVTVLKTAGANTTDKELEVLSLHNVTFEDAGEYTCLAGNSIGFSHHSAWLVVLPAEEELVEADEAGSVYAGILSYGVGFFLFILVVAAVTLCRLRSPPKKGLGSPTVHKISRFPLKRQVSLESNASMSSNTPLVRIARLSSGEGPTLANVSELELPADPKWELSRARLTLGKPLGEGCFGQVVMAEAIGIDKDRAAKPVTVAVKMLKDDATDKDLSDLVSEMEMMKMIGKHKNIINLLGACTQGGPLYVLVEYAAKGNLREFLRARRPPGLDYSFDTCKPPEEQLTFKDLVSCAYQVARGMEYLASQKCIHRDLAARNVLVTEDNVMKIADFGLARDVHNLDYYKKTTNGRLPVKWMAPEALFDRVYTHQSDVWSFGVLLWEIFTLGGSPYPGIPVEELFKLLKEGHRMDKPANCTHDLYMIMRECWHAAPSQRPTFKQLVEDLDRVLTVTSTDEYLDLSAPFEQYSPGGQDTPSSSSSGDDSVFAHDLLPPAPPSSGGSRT
Sequence,phosphorylation enrichment [1],phosphorylation enrichment [2],phosphorylation enrichment [3],phosphorylation enrichment [4],phosphorylation enrichment [5],phosphorylation enrichment [6],phosphorylation enrichment [7],phosphorylation enrichment [8],phosphorylation enrichment [9],phosphorylation enrichment [10],phosphorylation enrichment [11],phosphorylation enrichment [12],phosphorylation enrichment [13],SH2 binding enrichment [14],SH2 binding enrichment [15],SH2 binding enrichment [16]
GKSHIYFWTLE [EML2_Y230],0.8,0.496,0.513,1.22,0.577,0.588,0.669,1.3,0.538,0.818,1.3,0.539,1.07,0.902,0.548,0.713
GLAELYEYQKK [CKAP5_Y1854_K1857Q],0.61,0.87,0.532,1.08,0.813,0.909,0.574,0.917,0.857,0.529,0.985,0.472,0.629,0.671,0.509,0.697
GLIPAYHWVIM [NMNAT1_Y64_R66W],8.56,5.52,0.503,1.49,0.526,0.755,1.8,1.68,0.543,0.92,1.25,0.731,6.04,0.878,0.535,0.52
GLRSFYETSKM [MAGED2_Y449_YF],0.385,0.505,0.331,0.596,0.437,0.438,0.374,0.707,0.506,0.806,0.739,0.342,0.42,0.933,0.582,0.771
GMKIVYVFVKK [DNAI2_Y5_E2K_YF],0.433,0.416,0.463,1.2,0.394,0.59,1.06,1,0.428,0.863,1.14,0.538,0.706,1.18,0.677,1.21
GNHVSYYQSDG [CACNA1C_Y1757],0.718,0.49,0.462,0.774,0.574,0.557,0.81,0.667,0.57,0.621,0.762,0.485,0.81,0.806,0.902,0.802
GPSTPYTKSKR [SMARCC2_Y324],0.363,0.324,0.405,0.408,0.452,0.322,0.353,0.497,0.319,0.651,0.511,0.299,0.362,0.746,0.505,0.758
GQETSYIEDNC [PAH_Y24],0.452,0.51,0.507,1.47,0.515,0.83,0.466,1.15,0.666,0.74,1.28,0.758,0.769,1.05,0.68,0.559
GRERPYGGGGG [FUS_Y526_R521G],1.02,0.6,0.357,0.498,0.854,0.654,0.968,0.512,0.787,0.416,0.565,0.492,0.487,0.722,0.485,0.824
GREYIYVDPMQ [PDGFRA_Y574_H570R],12.7,1.21,1.73,3.12,1.86,6.9,4.27,1.17,2.05,5.21,0.801,8.24,8.94,0.95,0.53,0.718
GRRGQYVMPSE [TTC7A_Y396_L399P],0.433,0.39,0.415,0.586,0.41,0.356,0.465,0.323,0.41,0.482,0.557,0.481,0.394,0.782,1.92,0.519
GRVLGYGTFGK [FLT4_Y853_A855T],0.338,0.393,0.543,0.553,0.623,0.372,0.369,0.617,0.417,0.533,0.633,0.538,0.414,1.01,0.725,0.7
GSPAPYRRRKR [MBD1_Y403_P401A],0.596,0.505,0.502,0.617,0.618,0.466,0.608,0.632,0.498,0.497,0.545,0.499,0.426,0.594,0.42,0.413
GSSEDYLHMVH [NIPBL_Y247],1.07,0.416,0.423,0.978,0.524,0.475,0.485,0.874,0.449,0.646,0.874,0.473,1,0.743,0.465,0.556
GTHCHYKAPTV [FZD9_Y569],0.493,0.505,0.442,0.648,0.485,0.421,0.442,0.667,0.429,3.71,0.79,0.39,0.51,1.25,1.3,0.913
